Experimental data taken from patent US20070160576A1, “IL-17A/F heterologous polypeptides and therapeutic uses thereof” (Genentech, Inc., priority 2001, published 2007).

How the values were obtained:
[1] = target: T1, IL-17R on transfected Cos cells (human, UniProt Q96F46 33-866); test: binding to transfected Cos cells; data not shown
T1 construct: whole, on cells; also called Cos cells transfected with IL-17R

[2] = target: T2, IL-17RH1 (PRO5801) extracellular domain, purified, monomeric (human, UniProt Q9NRM6 18-292); test: SPR (BIAcore), IL-17F immobilized
T2 construct: extracellular domain
T2 sequence (looked up): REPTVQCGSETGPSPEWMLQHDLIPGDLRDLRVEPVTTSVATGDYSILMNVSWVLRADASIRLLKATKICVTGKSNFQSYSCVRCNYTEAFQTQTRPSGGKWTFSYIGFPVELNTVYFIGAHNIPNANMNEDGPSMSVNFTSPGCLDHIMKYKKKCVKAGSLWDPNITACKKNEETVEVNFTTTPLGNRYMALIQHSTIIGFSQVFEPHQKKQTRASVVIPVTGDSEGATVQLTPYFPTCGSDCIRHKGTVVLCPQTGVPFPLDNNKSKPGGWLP
Description: (§1) Sensorgrams-were obtained for a series of six, two-fold serially diluted protein solutions. The highest concentration used was 1000 or 500 nM protein and the solutions were prepared in the running buffer, PBS containing 0.05% Tween-20. The sensor chip surface was regenerated between binding cycles by injection of a 25 ┘L aliquot of 0.1 M acetic acid, 0.2 M NaCl, pH 3 to elute non-covalent bound protein. Sensorgrams were evaluated according to a 1:1 binding model by non-linear regression analysis using software supplied by the manufacturer. […] The amount of bound receptor was determined from the resonance signal obtained after completion of the association phase.

[3] = target: T3, PRO5801 (human IL-17RH1 receptor) (Homo sapiens, UniProt Q9NRM6); test: Receptor/ligand interaction screening assay (immunoadhesin); type: binding
T3 sequence (Q9NRM6 18-502): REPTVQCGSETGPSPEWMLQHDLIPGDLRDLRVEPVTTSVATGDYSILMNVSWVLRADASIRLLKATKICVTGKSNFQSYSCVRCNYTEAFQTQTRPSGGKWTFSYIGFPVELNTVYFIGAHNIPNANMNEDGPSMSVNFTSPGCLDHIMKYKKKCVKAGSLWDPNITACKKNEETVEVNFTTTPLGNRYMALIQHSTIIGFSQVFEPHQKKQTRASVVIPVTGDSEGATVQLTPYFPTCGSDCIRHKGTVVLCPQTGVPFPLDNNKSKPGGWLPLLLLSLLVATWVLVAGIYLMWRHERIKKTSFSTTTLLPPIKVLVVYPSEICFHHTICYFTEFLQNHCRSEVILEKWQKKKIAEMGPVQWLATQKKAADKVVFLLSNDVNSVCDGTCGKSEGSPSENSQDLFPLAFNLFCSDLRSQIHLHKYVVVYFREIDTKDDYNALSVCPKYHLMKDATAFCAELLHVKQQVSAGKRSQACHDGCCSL
Description: In general, the assay is performed as follows. A PRO polypeptide of the present invention suspected of being a ligand for a receptor is expressed as a fusion protein containing the Fc domain of human IgG (an immunoadhesin). Receptor-ligand binding is detected by allowing interaction of the immunoadhesin polypeptide with cells (e.g. Cos cells) expressing candidate PRO polypeptide receptors and visualization of bound immunoadhesin with fluorescent reagents directed toward the Fc fusion domain and examination by microscope. Cells expressing candidate receptors are produced by transient transfection, in parallel, of defined subsets of a library of cDNA expression vectors encoding PRO polypeptides that may function as receptor molecules. Cells are then incubated for 1 hour in the presence of the PRO polypeptide immunoadhesin being tested for possible receptor binding. The cells are then washed and fixed with paraformaldehyde. The cells are then incubated with fluorescent conjugated antibody directed against the Fc portion of the PRO polypeptide immunoadhesin (e.g. FITC conjugated goat anti-human-Fc antibody). The cells are then washed again and examined by microscope. A positive interaction is judged by the presence of fluorescent labeling of cells transfected with cDNA encoding a particular PRO polypeptide receptor or pool of receptors and an absence of similar fluorescent labeling of similarly prepared cells that have been transfected with other cDNA or pools of cDNA. If a defined pool of cDNA expression vectors is judged to be positive for interaction with a PRO polypeptide immunoadhesin, the individual cDNA species that comprise the pool are tested individually (the pool is “broken down”) to determine the specific cDNA that encodes a receptor able to interact with the PRO polypeptide immunoadhesin.
In another embodiment of this assay, an epitope-tagged potential ligand PRO polypeptide (e.g., 8 histidine “His” tag) is allowed to interact with a panel of potential receptor PRO polypeptide molecules that have been expressed as fusions with the Fc domain of human IgG (immunoadhesins). Following a 1 hour co-incubation with the epitope tagged PRO polypeptide, the candidate receptors are each immunoprecipitated with protein A beads and the beads are washed. Potential ligand interaction is determined by Western blot analysis of the immunoprecipitated complexes with antibody directed towards the epitope tag. An interaction is judged to occur if a band of the anticipated molecular weight of the epitope tagged protein is observed in the Western blot analysis with a candidate receptor, but is not observed to occur with the other members of the panel of potential receptors.

[4] = target: T2, IL-17RH1 (PRO5801) extracellular …; test: SPR (BIAcore 1000), IL-17RH1 immobilized, 1:1 model
[5] = target: T4, IL-17R (PRO1) extracellular domain, purified, monomeric (human, UniProt Q96F46 33-320); test: SPR (BIAcore)
T4 construct: extracellular domain; also called human IL-17 receptor
Description: as §1

IL-17RH1 (PRO5801) = target: T5, IL-17RH1 (PRO5801) (Homo sapiens, UniProt Q9NRM6); test: SPR (BIAcore) binding measurements; settings: for Koff × 10^4: value is Koff × 10^4; for Kon × 10^−5: value is Kon × 10^−5
T5 construct: the extracellular domains (ECDs) of either of the two receptors IL-17R (designated PRO1) and IL-17RH1 (PRO5801)
T5 sequence (Q9NRM6 18-292 limits assumed): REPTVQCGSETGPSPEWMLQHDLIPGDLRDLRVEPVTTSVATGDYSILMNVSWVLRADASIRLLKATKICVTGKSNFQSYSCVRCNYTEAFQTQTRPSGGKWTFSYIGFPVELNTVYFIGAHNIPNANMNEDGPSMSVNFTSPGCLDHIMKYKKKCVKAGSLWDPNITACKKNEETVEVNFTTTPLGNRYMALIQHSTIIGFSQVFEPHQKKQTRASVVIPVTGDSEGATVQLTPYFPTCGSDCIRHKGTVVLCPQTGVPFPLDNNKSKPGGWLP
Description: (§2) The kinetics and affinity of IL-17, IL-17E (PRO10272), or IL-17F (PRO20110) binding to IL-17R or IL-17RH1 (PRO5801) were determined by SPR measurements on a Pharmacia BIAcore 1000 instrument (Phamacia Biosensor, Piscataway N.J.). IL-17 ligand or receptor was immobilized onto a flow cell of a CM5 sensor chip via random coupling to amino groups, N-hydroxysuccinimide chemistry, by using a protocol developed by the manufacturer. An immobilization level of about 500 resonance units (RU) was obtained for IL-17R, IL-17RH1, and IL-17F, whereas IL-17 and IL-17E immobilization levels were 1200 and 1500 RU, respectively. A strong signal was obtained for IL-17R binding to immobilized IL-17. […] After blocking unreacted sites with ethanolamine, binding measurements were performed using a flow rate of 25 ┘L/min. Sensorgrams-were obtained for a series of six, two-fold serially diluted protein solutions. The highest concentration used was 1000 or 500 nM protein and the solutions were prepared in the running buffer, PBS containing 0.05% Tween-20. The sensor chip surface was regenerated between binding cycles by injection of a 25 ┘L aliquot of 0.1 M acetic acid, 0.2 M NaCl, pH 3 to elute non-covalent bound protein. Sensorgrams were evaluated according to a 1:1 binding model by non-linear regression analysis using software supplied by the manufacturer. In separate experiments to measure competition between IL-17 variants for binding receptors, a fixed concentration of receptor was incubated with a varied concentration of IL-17 protein followed by injection of this mixture onto a flow cell having immobilized IL-17 protein. The amount of bound receptor was determined from the resonance signal obtained after completion of the association phase.

IL-17R = target: T6, IL-17R (Homo sapiens, UniProt Q96F46); test: SPR (BIAcore) binding measurements; settings: IL-17R in solution, cytokine immobilized
T6 construct: the extracellular domains (ECDs) of either of the two receptors IL-17R (designated PRO1) and IL-17RH1 (PRO5801)
Description: as §2

IL-17RH1 = target: T7, IL-17RH1 (Homo sapiens, UniProt Q9NRM6); test: SPR competition for receptor binding to immobilized IL-17E; settings: IL-17RH1 31 nM; IL-17F at 1.3 ┘M
T7 construct: the extracellular domains (ECDs) of either of the two receptors IL-17R (designated PRO1) and IL-17RH1 (PRO5801)
T7 sequence (Q9NRM6 18-292 limits assumed): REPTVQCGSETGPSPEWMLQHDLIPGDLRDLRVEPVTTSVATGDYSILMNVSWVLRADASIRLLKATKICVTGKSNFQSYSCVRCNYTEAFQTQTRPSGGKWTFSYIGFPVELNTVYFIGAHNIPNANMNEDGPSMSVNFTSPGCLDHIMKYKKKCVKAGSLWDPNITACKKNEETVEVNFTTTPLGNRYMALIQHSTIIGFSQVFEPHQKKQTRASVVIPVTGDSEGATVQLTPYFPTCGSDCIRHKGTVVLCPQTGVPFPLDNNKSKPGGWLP
Description: as §2, with “The sensor chip surface was regenerated between binding cycles by injection of a 25 ┘L aliquot of 0.1 M acetic acid, 0.2 M NaCl, pH 3 to elute non-covalent bound protein.” left out, “In separate experiments to measure competition between IL-17 variants for binding receptors, a fixed concentration of receptor was incubated with a varied concentration of IL-17 protein followed by injection of this mixture onto a flow cell having immobilized IL-17 protein.” left out, “phase. […]” for “phase.”

[6] = target: T2, IL-17RH1 (PRO5801) extracellular …; test: SPR (BIAcore 1000), IL-17E immobilized, 1:1 model
Description: as §1

[7] = immobilized IL-17E, ligand IL-17RH1
[8] = immobilized IL-17RH1, ligand IL-17E

Molecule	binding result [1]	binding result [2]	binding to IL-17RH1 receptor (PRO5801) [3]	Kd [4]	koff [4]	kon [4]	binding result [5]	SPR binding to IL-17RH1 (in words) (IL-17RH1 (PRO5801))	Koff × 10^4 (IL-17RH1 (PRO5801); [7])	Kon × 10^−5 (IL-17RH1 (PRO5801); [7])	Koff × 10^4 (IL-17RH1 (PRO5801); [8])	Kon × 10^−5 (IL-17RH1 (PRO5801); [8])	SPR binding to IL-17R (in words) (IL-17R)	competition for binding of IL-17RH1 to immobilized IL-17E (IL-17RH1)	Kd [6]	koff [6]	kon [6]
human IL-17F (PRO20110) (ligand, disulfide-linked homodimer, glycosylated at Asn 53) RKIPKVGHTFFQKPESCPPVPGGSMKLDIGIINENQRVSMSRNIESRSTSPWNYTVTWDPNRYPSEVVQAQCRNLGCINAQGKEDISMNSVPIQQETLVVRRKHQGCSVSFQLEKVLVTVGCTCVTPVIHHVQ	binds	no binding (tested: up to 0.5 µM (printed 0.5 ┘M))	–	–	–	–	–	–	–	–	–	–	–	–	–	–	–
human IL-17E (PRO10272), protein used in SPR (ligand, UniProt Q9H293 33-177, looked up, construct not described) YSHWPSCCPSKGQDTSEELLRWSTVPVPPLEPARPNRHPESCRASEDGPLNSRAISPWRYELDRDLNRLPQDLYHARCLCPHCVSLQTGSHMDPRGNSELLYHNQTVFYRRPCHGEKGTHKGYCLERRLYRVSLACVCVRPRVMG	–	–	binds to	1.4 nM	0.00062 s⁻¹	430000 M⁻¹ s⁻¹	no binding	high affinity binding	7.0 s^−1	6.7 M^−1 s^−1	6.2 s^−1	4.3 M^−1 s^−1	no binding was observed	completely inhibited	1.1 nM	0.0007 s⁻¹	670000 M⁻¹ s⁻¹
